# From patent US20080026077A1, “METHODS AND COMPOSITIONS OF GENE DELIVERY AGENTS FOR SYSTEMIC AND LOCAL THERAPY” (priority 2002, published 2008)
# Like-named read-outs stand apart in the source and are kept apart here. Marks after values point to notes of the source that are not given here. No end group written: not given here.
# Tests used:
# [1] = tibia, 24 hours after oral dosing, 4 mg/kg alendronate, with or without 4× molar BAC-A6
# Description: Male Swiss CFW mice 25-28 g are fed or fasted overnight and subsequently lightly anesthetized with isoflurane by inhalation prior to oral dosing. Mice are administered 0.2 ml of the dosing solution. 24 hrs after dosing the mice are sacrificed and the tibia collected. […] The amount of 14CO2 is quantified by scintillation counting.
# [2] = Oral gavage of zanamivir with various BAC analogs, plasma zanamivir; assay type: in vivo, Male Swiss CFW mice; details: fasted mice, 1 mg/kg zanamivir, BAC 1x equal molar; for Increase in concentration above H2O control / Mean Plasma Zanamivir Concentration: 30 min
# Excerpt: Plasma zanamivir concentrations are quantified by LC/MS/MS analysis.
# [3] = Critical micellar concentration (CMC) of BACs, dye solubilization method; assay type: physicochemical; details: DPH dye solubilization, 50 mM Tris buffer pH 8.0
# Description: Briefly, serial dilutions of a 7 mg/ml solution of the BACs are made in 50 mM Tris buffer pH 8.0. 10 ul of the dye 1,6-diphenyl-1,3,5-hexatriene (DPH, Sigma) (0.4 mM in methanol) is added to each ml. After overnight RT incubation in the dark, the absorbance of the samples at 356 nm is recorded. Linear regression of the data points above baseline was performed and the calculated CMC derived from the x intercept. The results for thirteen different BACs are shown in Table 1 based on a chendoxycholamide of the detailed motifs.
# [4] = Octanol/buffer partitioning of carboxyfluorescein mixed with BAC analogs; assay type: physicochemical; details: 4 nmoles carboxyfluorescein, 281 nmoles BAC
# Description: Partitioning of the fluorescent compound carboxyfluorescein by a BAC of Formula I into the octanol phase of an octanol/buffer portioning system for a series of BAC compounds is determined following standard methods. […] The mixture is vortexed for 5 mins and the incubated at room temperature for 3 hours. The solution is centrifuged to facilitate complete phase separation and a 100 μl of aqueous material is withdrawn for fluorescent measurement.
# [5] = In situ intestinal absorption, single pass perfusion of radiolabeled BAC/pDNA; assay type: in vivo; details: complexes with membrane translocating BAC
# Description: In order to examine the capability of the BAC/pDNA complex to bind and/or be absorbed onto the intestinal lumen cells the absorption of nicked-radiolabeled pDNA in a single pass perfusion experiment is tested. Using isolated ileal or jejunal segments radio-labeled BAC/pDNA mixtures mixture is mixed with HEPES buffer, pH 7.4, and perused at jejunal (filled symbols) and ileal (open symbols) sites. After 30 min of steady state, sample fractions are collected and the absorbed fraction of BAC/pDNA calculated. BAC/pDNA mixtures used are pDNA:BAC 1:27,000 neutrally charged and 1:54,000 molar ratios positively charged. Uncomplexed pDNA is used as a control.
Molecule,Increase in concentration above H2O control [2],Calculated CMC concentration [3],Mean Plasma Zanamivir Concentration [2],also measured
"NCCCC(O)(P(=O)(O)O)P(=O)(O)O [Alendronate, alendronate]",,,,"Bone deposition of 14C-alendronate, mean dpm/mg bone ([1]; Fasted mice): 3.92 dpm/mg; Bone deposition of 14C-alendronate, mean dpm/mg bone ([1]; Fed mice): 9.51 dpm/mg"
"CC(=O)N[C@H]1[C@H]([C@H](O)[C@H](O)CO)OC(C(=O)O)=C[C@@H]1N=C(N)N [Zanamivir, zanamivir, reference compound]",1 fold,,,"concentration at 30 min ([2]; male, Swiss CFW, mouse, plasma): 55 ng/mL"
"B7: chendoxycholamide bile acid conjugate, peptide Z = -RRRARRR (not fully specified (N-terminus); printed as -RRRARRR; also: chenodeoxycholamide bile acid conjugate, attachment not placed)",4 fold,>5.0* mM,228 ng/mL,
"C8: chendoxycholamide bile acid conjugate, peptide Z = -RRARRARR (not fully specified (N-terminus); printed as -RRARRARR; also: chenodeoxycholamide bile acid conjugate, attachment not placed)",4 fold,4.4 mM,223 ng/mL,
Carboxyfluorescein,,,,"Fluorescence Units ([4]; aqueous phase after octanol/buffer partitioning): 78614; LogD ([4]; carboxyfluorescein, octanol/buffer): −1.638"
"D9: chendoxycholamide bile acid conjugate, peptide Z = -RARARARAR (not fully specified (N-terminus); printed as -RARARARAR; also: chenodeoxycholamide bile acid conjugate, attachment not placed)",,1.7 mM,,
"N-E9 motif of chenoxycholamide (RAWARAWAR; also: chenodeoxycholamide bile acid conjugate, site not given here)",22 fold,1.2 mM,1227 ng/mL,
"membrane translocating BAC: 12-residue membrane translocating peptide (SEQ ID NO: 23) coupled to bile acid by an ether linkage (AAVLLPVLLAAP; also: coupled to bile acid by an ether linkage, site not given here)",,,,in situ intestinal absorption compared with FIG. 7 [5]: comparable results to those depicted in FIG. 7
